B1: GST-p107 R1R2 [not stated] / B55α (PP2A regulatory subunit B55α), endogenous in U-2 OS cells [human (endogenous in U-2 OS)] (parent)
chain 1: KVPTCEEVIFPNNFETGNGGNVQGHLPLMPMSPLMHPRVKEVRTDSGSLRRDMQPLSPISVHERYSSPTAGSAKRRLF
chain 2: MAGAGGGNDIQWCFSQVKGAVDDDVAEADIISTVEFNHSGELLATGDKGGRVVIFQQEQENKIQSHSRGEYNVYSTFQSHEPEFDYLKSLEIEEKINKIRWLPQKNAAQFLLSTNDKTIKLWKISERDKRPEGYNLKEEDGRYRDPTTVTTLRVPVFRPMDLMVEASPRRIFANAHTYHINSISINSDYETYLSADDLRINLWHLEITDRSFNIVDIKPANMEELTEVITAAEFHPNSCNTFVYSSSKGTIRLCDMRASALCDRHSKLFEEPEDPSNRSFFSEIISSISDVKFSHSGRYMMTRDYLSVKIWDLNMENRPVETYQVHEYLRSKLCSLYENDCIFDKFECCWNGSDSVVMTGSYNNFFRMFDRNTKRDITLEASRENNKPRTVLKPRKVCASGKRKKDEISVDSLDFNKKILHTAWHPKENIIAVATTNNLYIFQDKVN

Variants of: B1
Experiment: GST pull-down, western blot
Conditions: with B55α (PP2A regulatory subunit B55α), U2-OS lysates, triplicate, read off a plot

ratio to parent	Variant
0.57	chain 1 R64A
